Test [1] addresses T1, human HER3 polypeptide (human, UniProt P21860 20-643).
T1 construct: Recombinant antigen of the ELISAs; also called human HER3 (Sino Biological Inc.); human antigen HER3
As to the kind of experiment: BLI; after 15 days at 40 °C/80% RH.

Test [2] deals with T2, hCD16a (human, UniProt P08637 17-208, limits assumed).
T2 construct: also called human CD16a
The test is described as follows: BLI; after 15 days at 40 °C/80% RH.

Test [3] deals with T1, human HER3 polypeptide. As to the kind of experiment: BLI; day 0 of storage at 40 °C/80% RH. (In general: In BLI a coated tip is dipped into the sample, and binding shifts an interference pattern.)
Test [4] addresses T2, hCD16a. The test is described as follows: BLI; day 0 of storage at 40 °C/80% RH.
Another test has as its target T3, FcRn (human, UniProt P55899).
T3 construct: recombinant; also called human FcRn; gene FCGRT (so in the source)
As to the kind of experiment: Bio-Layer Interferometry (determined as described in Example 7).

Another test has as its target T4, moFcRn (mouse, UniProt Q61559).
T4 construct: recombinant; also called mouse FcRn; gene FCGRT (so in the source)
T4 sequence (receptor, looked up): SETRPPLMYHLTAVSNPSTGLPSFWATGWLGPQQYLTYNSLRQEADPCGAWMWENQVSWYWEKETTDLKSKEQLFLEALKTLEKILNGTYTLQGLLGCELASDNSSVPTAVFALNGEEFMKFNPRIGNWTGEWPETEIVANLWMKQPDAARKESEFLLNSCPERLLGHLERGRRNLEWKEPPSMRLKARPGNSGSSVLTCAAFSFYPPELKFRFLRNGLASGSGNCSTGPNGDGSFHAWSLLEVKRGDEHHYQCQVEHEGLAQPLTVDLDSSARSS
T4 sequence (looked up): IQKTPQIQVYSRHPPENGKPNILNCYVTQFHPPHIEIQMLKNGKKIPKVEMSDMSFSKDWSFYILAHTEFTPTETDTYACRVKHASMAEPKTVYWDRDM
The description is as above.

The next test addresses T5, moFcgRIV.
T5 construct: also called CD16-2; mFcγRIV
T5 chain: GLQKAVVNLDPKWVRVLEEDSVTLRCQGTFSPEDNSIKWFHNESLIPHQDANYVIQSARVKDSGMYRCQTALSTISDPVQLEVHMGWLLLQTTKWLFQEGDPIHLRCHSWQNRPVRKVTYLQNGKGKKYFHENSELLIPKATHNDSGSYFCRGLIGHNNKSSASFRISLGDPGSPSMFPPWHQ
The description is as above.

Test [5] concerns the target T1, human HER3 polypeptide. The test is described as follows: ELISA; plate coated with target polypeptide, antibody serially diluted, absorbance 450 nm. As to the method:
(§1) ELISAs were carried out according to standard protocols. Plates were coated with 0.1 μg/ml of target polypeptide in phosphate-buffered saline (PBS) for 16 h at 4° C. After blocking for 1 h with 1% BSA in Tris buffer saline (TBS) at room temperature, the anti-HER3 antibody was serially diluted with the highest concentration being 10 μg/ml, and added to the plate. Post 1 h incubation at room temperature, plates were washed three times with TBS containing 0.05% Tween 20 (TBS-T) and were then incubated with a HRP-conjugated anti-His antibody (Life Technologies, Inc., USA) for 1 h at room temperature. After washing, plates were developed with colorimetric detection substrate 3,3′,5,5′-tetramethylbenzidine (Turbo-TMB; Pierce, USA) for 10 min. The reaction was stopped with 2M H₂SO₄, and OD was measured at 450 nm.
In general terms: An ELISA detects its analyte on a solid surface through an enzyme-linked reagent.

A further test deals with T6, mouse HER3 (mouse, UniProt Q61526 20-641).
T6 construct: also called mouse homologue of HER3 (Sino Biological Inc.); M. musculus HER3
T6 sequence (Q61526 20-641 limits assumed): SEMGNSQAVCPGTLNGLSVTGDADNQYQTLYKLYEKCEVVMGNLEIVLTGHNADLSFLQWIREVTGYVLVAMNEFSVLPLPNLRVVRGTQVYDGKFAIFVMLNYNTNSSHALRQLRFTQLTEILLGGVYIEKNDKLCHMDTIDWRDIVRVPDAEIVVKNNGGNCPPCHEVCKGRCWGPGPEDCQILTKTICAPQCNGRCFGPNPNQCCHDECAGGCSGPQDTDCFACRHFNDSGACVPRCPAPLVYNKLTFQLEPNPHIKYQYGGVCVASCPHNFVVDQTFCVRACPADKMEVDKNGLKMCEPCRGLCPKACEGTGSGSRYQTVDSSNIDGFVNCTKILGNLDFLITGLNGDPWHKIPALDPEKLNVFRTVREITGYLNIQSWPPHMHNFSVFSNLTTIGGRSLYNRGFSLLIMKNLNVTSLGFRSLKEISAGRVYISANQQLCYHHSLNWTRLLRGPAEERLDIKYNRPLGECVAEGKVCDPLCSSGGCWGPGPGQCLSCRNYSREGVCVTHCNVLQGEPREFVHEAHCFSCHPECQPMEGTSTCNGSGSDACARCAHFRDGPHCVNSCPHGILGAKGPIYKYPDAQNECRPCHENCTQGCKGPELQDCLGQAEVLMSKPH
Described as above. On the procedure:
as §1

Another test deals with T7, rat HER3 (rat, UniProt Q62799 20-641, limits assumed).
T7 construct: also called rat homologue of HER3 (Sino Biological Inc.); R. norvegicus HER3
T7 sequence (Q62799 20-641 limits assumed): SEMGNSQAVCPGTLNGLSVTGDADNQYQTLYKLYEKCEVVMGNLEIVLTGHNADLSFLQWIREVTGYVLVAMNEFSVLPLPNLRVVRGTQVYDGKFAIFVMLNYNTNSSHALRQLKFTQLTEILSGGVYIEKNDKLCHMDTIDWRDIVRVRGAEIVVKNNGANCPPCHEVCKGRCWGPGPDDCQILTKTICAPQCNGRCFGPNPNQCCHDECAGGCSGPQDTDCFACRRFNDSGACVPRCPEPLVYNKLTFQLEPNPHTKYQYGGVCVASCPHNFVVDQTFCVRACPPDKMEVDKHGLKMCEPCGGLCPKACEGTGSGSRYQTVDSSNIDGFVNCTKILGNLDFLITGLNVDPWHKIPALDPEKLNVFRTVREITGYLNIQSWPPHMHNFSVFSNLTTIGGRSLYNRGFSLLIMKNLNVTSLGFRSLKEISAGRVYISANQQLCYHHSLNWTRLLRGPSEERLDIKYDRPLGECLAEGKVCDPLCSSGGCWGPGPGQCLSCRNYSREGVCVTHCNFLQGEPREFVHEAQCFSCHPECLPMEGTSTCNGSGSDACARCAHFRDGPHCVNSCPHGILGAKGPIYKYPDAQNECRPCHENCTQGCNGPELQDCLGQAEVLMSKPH
Described as above. As to the method:
as §1

A further test addresses T8, cynomolgus macaque HER3 (cynomolgus macaque, UniProt G7PIG5 20-643).
T8 construct: also called monkey homologue of HER3 (Sino Biological Inc.); HER3 cyno
The description is as above. As to the method:
as §1

For test [6], the target named is T9, human HER3 expressed on cells (HEK293 HER3 O/E cells) (human, UniProt P21860 20-1342).
T9 construct: Also used here for HER3 on U2OS cells of the PathHunter kit and on cancer cell lines; also called HEK293 cells transfected with vector encoding human HER3; human HER3-expressing cells
The test is described as follows: flow cytometry, HEK293 cells overexpressing human HER3 (293_OE HER3), 20 ug/ml antibody, FITC anti-Fc secondary; same antibody on 293 cells: 2.78; unstained 293: 0.14. A general note: A flow cytometer gives signals particle by particle.

In another test the target is T10, His-tagged human HER3 (human, UniProt P21860 20-643).
T10 construct: Antigen of the BLI experiments and of the HER2-Fc dimerisation ELISA; also called HER3 His; not shown: His tag
The test is described as follows: BLI (Octet QK384), antibody on anti-human IgG capture tips, His-tagged human HER3 in solution, global 1:1 fit, R^2 = 0.9902, kon Error 1.12E+04; Response 0.1471 / 0.2882 / 0.3968 / 0.5458 at 35 / 69 / 139 / 278 nM. On the procedure:
The anti-HER3 antibody clones in IgG1 format were analysed for binding affinity to human HER3. Bio-Layer Interferometry (BLI) experiments were performed using the Octet QK384 system (ForteBio). anti-Human IgG Capture (AHC) Octet sensor tips (Pall ForteBio, USA) were used to anti-HER3 antibodies (25 nM). All measurements were performed at 25° C. with agitation at 1000 rpm. […] Sensograms were referenced for buffer effects and then fitted using the Octet QK384 user software (Pall ForteBio, USA). Kinetic responses were subjected to a global fitting using a one site binding model to obtain values for association (Kₒₙ), dissociation (Koff) rate constants and the equilibrium dissociation constant (KD). Only curves that could be reliably fitted with the software (R²>0.90) were included in the analysis.

One may read the Kd as the equilibrium constant for the complex coming apart. Broadly, the EC50 is the midpoint of the concentration-response curve. Lower therefore signals greater potency. For orientation: kon means the rate constant with which the complex forms.

T8 sequence (G7PIG5 entry or part of it): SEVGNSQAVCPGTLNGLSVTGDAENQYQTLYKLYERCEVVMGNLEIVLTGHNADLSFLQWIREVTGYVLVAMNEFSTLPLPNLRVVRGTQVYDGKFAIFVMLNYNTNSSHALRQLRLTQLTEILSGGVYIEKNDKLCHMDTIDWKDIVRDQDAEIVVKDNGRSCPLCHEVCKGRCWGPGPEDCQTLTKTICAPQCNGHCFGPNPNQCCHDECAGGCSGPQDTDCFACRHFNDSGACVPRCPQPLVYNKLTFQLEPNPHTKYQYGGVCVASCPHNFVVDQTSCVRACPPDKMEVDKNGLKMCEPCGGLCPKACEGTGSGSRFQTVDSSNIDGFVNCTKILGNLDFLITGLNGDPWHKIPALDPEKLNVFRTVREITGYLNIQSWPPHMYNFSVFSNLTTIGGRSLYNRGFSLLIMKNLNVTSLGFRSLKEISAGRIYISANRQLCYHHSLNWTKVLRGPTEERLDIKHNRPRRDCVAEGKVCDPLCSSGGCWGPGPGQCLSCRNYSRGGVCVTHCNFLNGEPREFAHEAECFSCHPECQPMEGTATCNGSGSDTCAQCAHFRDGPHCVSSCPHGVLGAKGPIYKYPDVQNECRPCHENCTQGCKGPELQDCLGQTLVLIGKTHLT

B1: 10D1F.FcA (anti-HER3 clone 10D1_c89 IgG1) (antibody)
heavy: not shown
light: DIQMTQSPSSVSASVGDRVTITCKASQIVGSNVAWYQQKPGKAPEPLIYSASYLYSGVPSRFSGSGSGTDFTLTISSLQPEDFATYYCQQYSSHPLTFGQGTKLEIKRTVAAPSVFIFPPSDEQLKSGTASVVCLLNNFYPREAKVQWKVDNALQSGNSQESVTEQDSKDSTYSLSSTLTLSKADYEKHKVYACEVTHQGLSSPVTKSFNRGEC
notes: also called 10D1F.A; HMBD-001
Regarding B1, the Kd is less than 0.001 nM with human HER3 polypeptide [1]; 265 nM with hCD16a [2]; less than 0.001 nM in the test with human HER3 polypeptide [3]; 294 nM with hCD16a [4]; 47.6 nM with FcRn; 14.6 nM with moFcRn. The same molecule registered a Kd in the test with moFcgRIV of 1810 nM. Besides, the EC50 with human HER3 polypeptide [5] is 0.0144 nM; with mouse HER3, 0.0332 nM; with rat HER3, 0.0303 nM; with cynomolgus macaque HER3, 0.0258 nM. For the same molecule, in [6], the “% Parent (HER3 positive)” value was determined as 44.6%. The molecule also displayed an on-rate constant (kon) in the test with His-tagged human HER3 of 297000 M⁻¹ s⁻¹.

Values taken from patent publication US20250122303A1 (HUMMINGBIRD BIOSCIENCE PTE, published 2025).
